Article PMC10630886, “Downregulation of stromal syntenin sustains AML development” (EMBO Molecular Medicine, 2023)
No end group written: not given here.

T1: 6xHis-tagged GIPC1 construct (UniProt O14908 1-333)
T1 construct: also called recombinant GIPC1; source: recombinant; prepared as described previously (PMID: 27386966)
T1 sequence (looked up): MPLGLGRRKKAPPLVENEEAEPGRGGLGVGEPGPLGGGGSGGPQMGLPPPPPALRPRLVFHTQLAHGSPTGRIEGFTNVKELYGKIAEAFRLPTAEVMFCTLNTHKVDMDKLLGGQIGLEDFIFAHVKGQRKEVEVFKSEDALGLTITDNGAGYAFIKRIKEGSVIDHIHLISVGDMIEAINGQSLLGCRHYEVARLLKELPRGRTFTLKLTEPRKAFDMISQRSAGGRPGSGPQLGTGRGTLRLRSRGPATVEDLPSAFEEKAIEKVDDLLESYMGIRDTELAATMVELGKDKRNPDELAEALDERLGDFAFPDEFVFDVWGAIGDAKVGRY

B1: biotinylated peptide corresponding to the last 25 amino acids of endoglin wild-type (peptide)
peptide: SSESSSTNHSIGSTQSTPCSTSSMA
modifications: also: biotinylated, position not given here
notes: endoglin (CD105), last 25 C-terminal amino acids, wild type; also called endoglin cytosolic domain; immobilized peptide corresponding to the last 25 C-terminal amino acids of wild-type endoglin

Assays:
[1] = biological target: biotinylated peptide corresponding to the last 25 amino acids of endoglin wild-type; assay: SPR; BIAcore T200, 25°C; 100 RU of biotinylated endoglin peptide immobilised on a streptavidin chip; His-tagged protein perfused (0.5 to 120 μM) at 30 μl/min in 10 mM HEPES pH 7.4, 150 mM NaCl, 0.005% Tween 20; apparent KD from equilibrium responses, Langmuir isotherm
[2] = biological target: T1, 6xHis-tagged GIPC1 construct; assay: as above; conditions: both partners purified

Molecule	Kd [1]	Kd [2]
6xHis-tagged syntenin construct (containing the two PDZ domains and the C-terminal domain) (domain or fragment)	27.1 µM	–
B1	–	2.4 µM
